In US20170088593A1 (UNIVERSITY OF FLORIDA RESEARCH FOUNDATION, published 2017):

Biological target: Keap-1 (UniProt Q14145 1-624)
Experiment: cell-based or functional assay

Chain of Keap-1 (Q14145 whole entry): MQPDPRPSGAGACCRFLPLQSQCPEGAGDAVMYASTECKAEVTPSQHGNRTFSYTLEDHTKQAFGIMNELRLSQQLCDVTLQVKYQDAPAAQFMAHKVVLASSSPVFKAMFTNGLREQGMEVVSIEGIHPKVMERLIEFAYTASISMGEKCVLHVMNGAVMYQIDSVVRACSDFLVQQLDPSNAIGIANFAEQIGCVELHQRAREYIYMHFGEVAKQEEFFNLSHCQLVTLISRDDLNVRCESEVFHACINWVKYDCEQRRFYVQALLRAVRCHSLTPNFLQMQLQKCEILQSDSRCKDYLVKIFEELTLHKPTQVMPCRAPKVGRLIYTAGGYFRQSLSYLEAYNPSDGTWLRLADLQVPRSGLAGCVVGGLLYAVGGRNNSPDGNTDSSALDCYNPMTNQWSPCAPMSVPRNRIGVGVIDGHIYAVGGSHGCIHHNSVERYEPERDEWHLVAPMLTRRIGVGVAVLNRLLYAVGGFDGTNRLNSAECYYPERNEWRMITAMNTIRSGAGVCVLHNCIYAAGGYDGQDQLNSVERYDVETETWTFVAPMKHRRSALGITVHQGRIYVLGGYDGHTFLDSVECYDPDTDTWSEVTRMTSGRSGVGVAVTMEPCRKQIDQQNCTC

B1: TatNrf2-14mer peptide (HIV-1 Tat cell penetrating peptide fused to the Nrf2 14mer) (peptide)
peptide: RKKRRQRRRLQLDEETGEFLPIQ
- GSTM1 mRNA (antioxidant enzyme and marker of the ARE response), RT-PCR in human retinal pigment epithelial cells treated with the TatNrf2 plasmid: 18 fold
